Protein stability index data for 94 variants are collected here from the supplement of paper PMC10567573.

The labels stand for the following.
B1: DVL3 (parent)
chain: FCADNPSELPPPMERTGGIGDSRP
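Further: lentivirally expressed fusions sorted by FACS into six bins by GFP to DsRed ratio, PSI derived from sequencing read proportions per bin multiplied by bin number.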

In this data set the parent is B1. The data set can be described thus: protein stability index of a GFP-peptide fusion (GPS, HEK-293T) (PSI 1-6); higher = more stable. The note with it: c terminus: a fixed tail appended.
Take FCADNPSELPPPMERTGGCGDSRP [I19C]: the protein stability index is 4.94.

With FCADNPSELPPPMERTGGHGDSRP [I19H], the protein stability index is 5.16.

Take FCADNPSELPPPMERTGGKGDSRP [I19K]: the protein stability index stood at 5.59.

Regarding FCADNPSELPPPMERTGGWGDSRP [I19W], the protein stability index amounted to 3.51.

FCADNPSELPPPMERTGGYGDSRP [I19Y]: the protein stability index was 4.35.

As for FCADNPSELPPPMERTGGSGDSRP [I19S], the protein stability index was determined as 5.22.

Consider FCADNPSELPPPMERTGGTGDSRP [I19T], for which the protein stability index worked out at 4.31.

With FCADNPSELPPPMERTGGRGDSRP [I19R], the protein stability index came to 4.74.

In the case of FCADNPSELPPPMERTGGFGDSRP [I19F], the protein stability index is 4.37.

Regarding FCADNPSELPPPMERTGGAGDSRP [I19A], the protein stability index is 5.33.

With FCADNPSELPPPMERTGGMGDSRP [I19M], the protein stability index was determined as 4.8.

For FCADNPSELPPPMERTGGQGDSRP [I19Q], the protein stability index was determined as 4.65.

In the case of FCADNPSELPPPMERTGGDGDSRP [I19D], the protein stability index worked out at 4.94.

As for FCADNPSELPPPMERTGGVGDSRP [I19V], the protein stability index came out at 5.09.

Take FCADNPSELPPPMERTGGEGDSRP [I19E]: the protein stability index is 5.77.

In the case of FCADNPSELPPPMERTGGNGDSRP [I19N], the protein stability index stood at 4.82.

Consider FCADNPSELPPPMERTTGIGDSRP [G17T], for which the protein stability index came to 4.48.

With FCADNPSELPPPMERTVGIGDSRP [G17V], the protein stability index came to 4.12.

Regarding FCADNPSELPPPMERTYGIGDSRP [G17Y], the protein stability index was 3.91.

For FCADNPSELPPPMERTGGIQDSRP [G20Q], the protein stability index was 4.79.

Consider FCADNPSELPPPMERTGGIHDSRP [G20H], for which the protein stability index stood at 4.18.

FCADNPSELPPPMERTGGIVDSRP [G20V]: the protein stability index was found to be 4.49.

With FCADNPSELPPPMERTGGIIDSRP [G20I], the protein stability index is 4.48.

As to FCADNPSELPPPMERTGGITDSRP [G20T], the protein stability index is 4.66.

On to FCADNPSELPPPMERTGGIDDSRP [G20D], for which the protein stability index was found to be 4.51.

Take FCADNPSELPPPMERTGGIEDSRP [G20E]: the protein stability index came to 4.53.

In the case of FCADNPSELPPPMERTGGICDSRP [G20C], the protein stability index was 4.12.

In the case of FCADNPSELPPPMERTGGILDSRP [G20L], the protein stability index stood at 3.76.

With FCADNPSELPPPMERTGGIYDSRP [G20Y], the protein stability index stood at 3.45.

FCADNPSELPPPMERTGGIMDSRP [G20M]: the protein stability index stood at 4.18.

Turning to FCADNPSELPPPMERTGGIRDSRP [G20R], the protein stability index came to 3.83.

On to FCADNPSELPPPMERTGGIPDSRP [G20P], for which the protein stability index came out at 5.08.

For FCADNPSELPPPMERTGGINDSRP [G20N], the protein stability index amounted to 4.54.

In the case of FCADNPSELPPPMERTGGIKDSRP [G20K], the protein stability index came to 4.32.

As to FCADNPSELPPPMERTGGIFDSRP [G20F], the protein stability index came to 3.78.

As to FCADNPSELPPPMERTGGIADSRP [G20A], the protein stability index turned out to be 4.68.

For FCADNPSELPPPMERTGGISDSRP [G20S], the protein stability index turned out to be 4.4.

As to FCADNPSELPPPMERTGGIGDSEP [R23E], the protein stability index came to 4.95.

Turning to FCADNPSELPPPMERTGGIGDSCP [R23C], the protein stability index worked out at 4.59.

Regarding FCADNPSELPPPMERTGGIGDSFP [R23F], the protein stability index is 3.55.

On to FCADNPSELPPPMERTGGIGDSDP [R23D], for which the protein stability index worked out at 5.18.

On to FCADNPSELPPPMERTGGIGDSTP [R23T], for which the protein stability index turned out to be 5.04.

As to FCADNPSELPPPMERTGGIGDSGP [R23G], the protein stability index was found to be 4.72.

FCADNPSELPPPMERTGGIGDSIP [R23I]: the protein stability index is 4.18.

Regarding FCADNPSELPPPMERTGGIGDSAP [R23A], the protein stability index was 4.89.

Regarding FCADNPSELPPPMERTGGIGDSSP [R23S], the protein stability index worked out at 4.75.

In the case of FCADNPSELPPPMERTGGIGDSLP [R23L], the protein stability index is 3.74.

On to FCADNPSELPPPMERTGGIGDSQP [R23Q], for which the protein stability index was determined as 4.56.

In the case of FCADNPSELPPPMERTGGIGDSHP [R23H], the protein stability index is 5.02.

Consider FCADNPSELPPPMERTGGIGDSYP [R23Y], for which the protein stability index came to 4.15.

As to FCADNPSELPPPMERTGGIGDSNP [R23N], the protein stability index worked out at 5.22.

As to FCADNPSELPPPMERTGGIGDSMP [R23M], the protein stability index amounted to 4.12.

In the case of FCADNPSELPPPMERTGGIGDSWP [R23W], the protein stability index amounted to 2.21.

Turning to FCADNPSELPPPMERTGGIGDSVP [R23V], the protein stability index was 4.46.

Regarding FCADNPSELPPPMERTGGIGDSKP [R23K], the protein stability index stood at 4.94.

With FCADNPSELPPPMERTGGIGDSRV [P24V], the protein stability index came out at 4.55.

FCADNPSELPPPMERTGGIGDSRT [P24T]: the protein stability index turned out to be 4.12.

On to FCADNPSELPPPMERTGGIGDSRG [P24G], for which the protein stability index came to 4.71.

Regarding FCADNPSELPPPMERTGGIGDSRY [P24Y], the protein stability index is 3.6.

FCADNPSELPPPMERTGGIGDSRA [P24A]: the protein stability index was found to be 3.79.

Take FCADNPSELPPPMERTGGIGDSRD [P24D]: the protein stability index was 4.86.

Take FCADNPSELPPPMERTGGIGDSRK [P24K]: the protein stability index was 4.92.

For FCADNPSELPPPMERTGGIGDSRR [P24R], the protein stability index stood at 5.16.

With FCADNPSELPPPMERTGGIGDSRS [P24S], the protein stability index worked out at 4.73.

In the case of FCADNPSELPPPMERTGGIGDSRH [P24H], the protein stability index was 4.66.

Turning to FCADNPSELPPPMERTGGIGDSRL [P24L], the protein stability index stood at 3.96.

Turning to FCADNPSELPPPMERTGGIGDSRN [P24N], the protein stability index was 4.6.

Turning to FCADNPSELPPPMERTGGIGDSRW [P24W], the protein stability index was 3.23.

With FCADNPSELPPPMERTGGIGDSRC [P24C], the protein stability index turned out to be 4.39.

On to FCADNPSELPPPMERTGGIGDSRI [P24I], for which the protein stability index came to 4.32.

Take FCADNPSELPPPMERTGGIGDSRF [P24F]: the protein stability index turned out to be 3.82.

For FCADNPSELPPPMERTGGIGDSRE [P24E], the protein stability index was found to be 5.45.

For FCADNPSELPPPMERTGGIGDSRM [P24M], the protein stability index is 3.65.

For FCADNPSELPPPMERTGGIGDSRQ [P24Q], the protein stability index turned out to be 4.58.

In the case of FCADNPSELPPPMERTGGIGDFRP [S22F], the protein stability index was found to be 3.28.

Consider FCADNPSELPPPMERTGGIGDVRP [S22V], for which the protein stability index amounted to 4.15.

For FCADNPSELPPPMERTGGIGDDRP [S22D], the protein stability index is 4.88.

For the variant FCADNPSELPPPMERTGGIGDWRP [S22W], the protein stability index turned out to be 3.97.

As to FCADNPSELPPPMERTGGIGDLRP [S22L], the protein stability index amounted to 4.4.

On to FCADNPSELPPPMERTGGIGDERP [S22E], for which the protein stability index came to 5.23.

FCADNPSELPPPMERTGGIGDTRP [S22T]: the protein stability index worked out at 4.7.

Regarding FCADNPSELPPPMERTGGIGDGRP [S22G], the protein stability index was 4.

Consider FCADNPSELPPPMERTGGIGDKRP [S22K], for which the protein stability index stood at 4.77.

With FCADNPSELPPPMERTGGIGDMRP [S22M], the protein stability index was found to be 4.09.

In the case of FCADNPSELPPPMERTGGIGDCRP [S22C], the protein stability index was determined as 3.55.

Take FCADNPSELPPPMERTGGIGDYRP [S22Y]: the protein stability index was 4.23.

In the case of FCADNPSELPPPMERTGGIGDNRP [S22N], the protein stability index amounted to 5.01.

In the case of FCADNPSELPPPMERTGGIGDPRP [S22P], the protein stability index is 4.63.

FCADNPSELPPPMERTGGIGDIRP [S22I]: the protein stability index was 4.

Take FCADNPSELPPPMERTGGIGDARP [S22A]: the protein stability index turned out to be 4.61.

On to FCADNPSELPPPMERTGGIGDQRP [S22Q], for which the protein stability index amounted to 5.11.

FCADNPSELPPPMERTGGIGDRRP [S22R]: the protein stability index stood at 4.29.

As to FCADNPSELPPPMERTGGIGDHRP [S22H], the protein stability index is 4.34.

As for FCADNPSELPPPMERTGGIGCSRP [D21C], the protein stability index was 3.98.
